Results taken from patent US8889621B2, “Inhibiting binding of FGF23 to the binary FGFR-Klotho complex for the treatment of hypophosphatemia” (New York University, priority 2009, dated 2014).
Blank lines part the entries; values can stand above or below the molecule they belong to.

Columns and labels:
[1] = molecular target: T1, binary FGFR1c-Klotho complex (UniProt O35082+P11362); test: Reverse SPR competition: FGFR1c-Klotho binding to immobilized FGF23^180-251; parameters: species or system human FGFR1c, murine Klotho; details: reverse SPR format
T1 construct: The ectodomain of murine Klotho (A35 to K982) was purified from culture media; FLAG (C); made in house; host or cells: E. coli (FGFR1c, FGF23); HEK293 (Klotho ectodomain)
T1 sequence (P11362 142-365): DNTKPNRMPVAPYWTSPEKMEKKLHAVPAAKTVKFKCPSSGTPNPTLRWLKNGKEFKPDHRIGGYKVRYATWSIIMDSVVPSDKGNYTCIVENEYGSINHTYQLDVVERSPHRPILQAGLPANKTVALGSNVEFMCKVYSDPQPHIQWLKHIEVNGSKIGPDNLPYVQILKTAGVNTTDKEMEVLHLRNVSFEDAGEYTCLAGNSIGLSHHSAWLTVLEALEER
T1 sequence (O35082 35-982): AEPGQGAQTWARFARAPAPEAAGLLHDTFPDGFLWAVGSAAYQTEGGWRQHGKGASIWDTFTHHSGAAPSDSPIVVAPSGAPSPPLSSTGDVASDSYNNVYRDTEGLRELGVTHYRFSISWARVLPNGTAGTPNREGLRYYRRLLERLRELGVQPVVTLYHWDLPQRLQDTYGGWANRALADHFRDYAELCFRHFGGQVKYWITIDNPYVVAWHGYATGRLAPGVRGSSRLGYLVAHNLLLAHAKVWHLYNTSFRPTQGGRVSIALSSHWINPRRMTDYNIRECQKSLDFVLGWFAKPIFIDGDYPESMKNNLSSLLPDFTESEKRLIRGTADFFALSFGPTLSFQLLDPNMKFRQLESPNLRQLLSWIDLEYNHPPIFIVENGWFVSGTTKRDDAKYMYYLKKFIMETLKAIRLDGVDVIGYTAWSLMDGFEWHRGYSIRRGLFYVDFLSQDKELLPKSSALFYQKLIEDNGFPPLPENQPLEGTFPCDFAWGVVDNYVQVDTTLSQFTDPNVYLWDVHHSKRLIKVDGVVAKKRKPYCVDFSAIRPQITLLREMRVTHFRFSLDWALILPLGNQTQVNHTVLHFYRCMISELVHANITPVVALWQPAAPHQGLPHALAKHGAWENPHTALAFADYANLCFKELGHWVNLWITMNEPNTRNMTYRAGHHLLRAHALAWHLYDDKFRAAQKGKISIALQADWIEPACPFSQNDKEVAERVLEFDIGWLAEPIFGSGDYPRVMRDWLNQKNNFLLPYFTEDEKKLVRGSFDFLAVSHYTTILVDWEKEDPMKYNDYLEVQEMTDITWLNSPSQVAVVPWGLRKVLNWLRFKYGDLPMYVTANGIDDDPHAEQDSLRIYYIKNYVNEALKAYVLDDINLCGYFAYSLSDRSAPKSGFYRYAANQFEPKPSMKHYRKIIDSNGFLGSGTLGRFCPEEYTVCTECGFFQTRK
Protocol: (§1) A variety of interaction or binding assays can be used to determine that an agent specifically binds the binary FGFR-Klotho complex, such as the SPR interaction analysis described below. One aspect of the present invention utilizes SPR analysis of FGF23 protein/peptide binding to the binary FGFR-Klotho complex. The SPR analysis involved FGF23 protein/peptide immobilization by amine coupling on flow channels of a chip. Proteins were injected over the chip at a flow rate of 50 μl min^−1, and at the end of each protein injection (180 s), HBS-EP buffer (10 mM HEPES-NaOH, pH 7.4, 150 mM NaCl, 3 mM EDTA, 0.005% (v/v) polysorbate 20; 50 μl min^−1) was flowed over the chip to monitor dissociation for 180 s. The chip surface was then regenerated by injecting 50 μl of 2.0 M NaCl in 10 mM sodium acetate, pH 4.5. […] For each protein injection over a FGF23 protein/peptide chip, the nonspecific responses from the FHF1B control flow channel were subtracted from the responses recorded for the flow channel onto which FGF23 protein/peptide was immobilized. […] As a control, competition of FGF23 C-terminal tail peptide in solution with immobilized FGF23 C-terminal tail peptide for binding to the binary FGFR1c-Klotho complex was analyzed. […]

[2] = molecular target: T1, binary FGFR1c-Klotho complex; test: SPR: binary FGFR1c-Klotho complex passed over immobilized FGF23 protein/peptide; format: binding, human FGFR1c, murine Klotho
Protocol: as §1

- inhibition of FGFR1c-Klotho binding to immobilized FGF23^180-251 [1]: inhibition
- binding to the binary FGFR1c-Klotho complex [2]: avidly bound
B1: FGF23^180-251: 72-amino acid C-terminal tail of human FGF23 (S180 to I251), expressed in E. coli (protein, listed as Homo sapiens)
chain: SAEDDSERDPLNVLKPRARMTPAPASCSQELPSAEDNSPMASDPLGVVRGGRVNTHAGGTGPEGCRPFAKFI

- inhibition of FGFR1c-Klotho binding to immobilized FGF23^180-251 [1]: inhibition
- binding to the binary FGFR1c-Klotho complex [2]: bound to the FGFR1c-Klotho complex
B2: FGF23^28-251: human FGF23 (A28 to I251), bioactive full-length ligand expressed in E. coli (protein, listed as Homo sapiens)
chain: ASPLLGSSWGGLIHLYTATARNSYHLQIHKNGHVDGAPHQTIYSALMIRSEDAGFVVITGVMSRRYLCMDFRGNIFGSHYFDPENCRFQHQTLENGYDVYHSPQYHFLVSLGRAKRAFLPGMNPPPYSQFLSRRNEIPLIHFNTPIPRRHTRSAEDDSERDPLNVLKPRARMTPAPASCSQELPSAEDNSPMASDPLGVVRGGRVNTHAGGTGPEGCRPFAKFI
